Assay results reported in US20260201033A1 (LTZ THERAPEUTICS, published 2026).
Read-outs that look alike come from different tables or passages of the source. Each block holds one binder with its values, some of them ahead of it.

Columns and labels:
[1] = biological target: T1, CD79b on Ramos cells and on endogenous B cells of human PBMCs (human, UniProt P40259 29-229); assay: cell-based or functional assay
T1 sequence (looked up): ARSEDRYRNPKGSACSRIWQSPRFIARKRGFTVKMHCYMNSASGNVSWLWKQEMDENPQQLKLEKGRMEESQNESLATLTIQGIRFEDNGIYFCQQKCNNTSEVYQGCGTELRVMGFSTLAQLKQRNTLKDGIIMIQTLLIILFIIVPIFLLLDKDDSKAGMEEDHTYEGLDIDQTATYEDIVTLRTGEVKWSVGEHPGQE

[2] = biological target: T1, CD79b on Ramos cells and on endogenous …; assay: cell-based or functional assay; remark: listed apart in the source
[3] = biological target: T1, CD79b on Ramos cells and on endogenous …; assay: cell-based or functional assay; remark: listed apart in the source
[4] = biological target: T1, CD79b on Ramos cells and on endogenous …; assay: flow cytometry on Ramos cells (CD79b+), anti-human IgG PE, MFI (PE)
[5] = biological target: T1, CD79b on Ramos cells and on endogenous …; assay: cell-based or functional assay; remark: listed apart in the source
[6] = biological target: T1, CD79b on Ramos cells and on endogenous …; assay: cell-based or functional assay; remark: listed apart in the source
[7] = biological target: T1, CD79b on Ramos cells and on endogenous …; assay: cell-based or functional assay; remark: listed apart in the source
[8] = biological target: T2, mouse CLEC5A (R&D Systems, Cat #: 8438-CL-050) (mouse, UniProt Q9R007 26-190, limits assumed); assay: ELISA, plate coated with mouse CLEC5A
T2 construct: Bought protein; also called recombinant mouse CLEC5A protein
T2 sequence: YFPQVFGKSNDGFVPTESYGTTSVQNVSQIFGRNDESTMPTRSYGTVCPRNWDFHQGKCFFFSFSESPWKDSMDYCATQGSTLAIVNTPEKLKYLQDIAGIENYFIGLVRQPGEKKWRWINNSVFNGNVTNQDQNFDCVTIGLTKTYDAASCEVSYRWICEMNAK

[9] = biological target: T3, Human C-type lectin domain family 5 member A (CLEC5A), endogenous on human monocytes and M0 macrophages (human, UniProt Q9NY25 1-188); assay: flow cytometry on human M0 macrophages, anti-human IgG PE
T3 construct: Endogenous CLEC5A on primary human monocytes and monocyte-derived M0 macrophages; also called MDL-1; M0 macrophages (CLEC5A+) cells
T3 sequence: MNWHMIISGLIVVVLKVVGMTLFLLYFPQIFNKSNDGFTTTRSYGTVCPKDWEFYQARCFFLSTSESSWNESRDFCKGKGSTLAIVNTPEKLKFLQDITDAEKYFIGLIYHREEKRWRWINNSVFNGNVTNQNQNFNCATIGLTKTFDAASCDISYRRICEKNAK

[10] = biological target: T4, human EGFR (ACROBiosystems, Cat #: EGR-H5222) (human, UniProt P00533 25-645); assay: ELISA, plate coated with human EGFR
T4 construct: Bought protein; also called recombinant human EGFR protein

HER2 on SK-BR-3 cells [11] = biological target: T5, HER2 on SK-BR-3 cells (UniProt P04626 23-1255, limits assumed); assay: cell-based or functional assay
[12] = biological target: T3, Human C-type lectin domain family 5 …; assay: flow cytometry on human M0 macrophages, anti-human IgG PE; remark: listed apart in the source
[13] = biological target: T6, Human CLEC5A His Tag protein (ACROBiosystems, Cat #: CLA-H5243) (human, UniProt Q9NY25 28-188, limits assumed); assay: ELISA, plate coated with human CLEC5A
T6 construct: Bought protein with a His tag; also called recombinant human CLEC5A protein
T6 sequence: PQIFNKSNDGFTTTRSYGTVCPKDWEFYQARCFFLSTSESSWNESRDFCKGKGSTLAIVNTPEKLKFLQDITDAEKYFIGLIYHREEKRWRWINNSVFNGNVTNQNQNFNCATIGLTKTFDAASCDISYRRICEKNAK

HER2 on SK-BR-3 cells [14] = biological target: T5, HER2 on SK-BR-3 cells; assay: cell-based or functional assay; remark: listed apart in the source

B1: CD79b/5C7 (2+2 B) Fc-optimized (bispecific antibody, human IgG1, kappa)
heavy: EQQLVETGGGLIQPGGSLRLSCAASGFTINIDYWISWVRQAPGKGLEWIGIIDPGDGTTYFAIWVSGRFTISFDNSKNTVYLQMNSLRAEDTAVYFCVREFSASAYQYDLWGPGTLVTVSSASTKGPSVFPLAPSSKSTSGGTAALGCLVKDYFPEPVTVSWNSGALTSGVHTFPAVLQSSGLYSLSSVVTVPSSSLGTQTYICNVNHKPSNTKVDKKVEPKSCDKTHTCPPCPAPELLAGPSVFLFPPKPKDTLMISRTPEVTCVVVDVSHEDPEVKFNWYVDGVEVHNAKTKPREEQYNSTYRVVSVLTVLHQDWLNGKEYKCKVSNKALPLPEEKTISKAKGQPREPQVYTLPPSRDELTKNQVSLTCLVKGFYPSDIAVEWESNGQPENNYKTTPPVLDSDGSFFLYSKLTVDKSRWQQGNVFSCSVMHEALHNHYTQKSLSLSPGGGGGSGGGGSGGGGSDIQMTQSPSSLSASVGDRVTITCQASESVDRNNRLAWFQQKPGKPPKLLIYTTSTLASGVPSRFSGSGSGTDFTLTISSLQPEDVATYYCAGYRGAHTDGDAFGCGTKVEIKGGGGSGGGGSGGGGSGGGGSEQQLVESGGGLVKPGGSLRLSCAASGFSFSRSSYMCWVRQAPGKCLEWIGCLSVGDGHTYYASWAKGRFTISKDSAKNSVYLQMNSLRAEDTAVYFCARAPSYSGDGGHGYDLWGPGTLVTVSS
light: ELVMTQSPATLSVSPGERATLSCRASEDIENYLAWYQQKPGQPPRLLIYRASTLSSGVPARFSGSGSGTEFTLTISSLQSEDFAVYYCQQGYRNSNVDNPFGGGTKVEIKRTVAAPSVFIFPPSDEQLKSGTASVVCLLNNFYPREAKVQWKVDNALQSGNSQESVTEQDSKDSTYSLSSTLTLSKADYEKHKVYACEVTHQGLSSPVTKSFNRGEC
- IC50 (nM), Ramos cell killing by M2 macrophages, Donor 022 [1]: 0.006 nM
- IC50 (nM), Ramos cell killing by M2 macrophages, Donor 431 [1]: 0.001 nM
- IC50 (nM), Ramos cell killing by M1 macrophages, Donor 431 [2]: 0.002 nM
- IC50 (nM), killing of endogenous B cells by PBMCs, Donor 234 [3]: 0.0156 nM
- EC50 (read off the curve) [4]: ~1000 pM
- IC50 (nM), Ramos cell killing by PBMCs (test 2), Donor 234 [5]: 0.0298 nM
- IC50 (nM), Ramos cell killing by PBMCs (test 2), Donor 431 [5]: 0.0168 nM
- IC50 (nM), Ramos cell killing by PBMCs (test 3), Donor 281 [6]: 0.28 nM
- IC50 (nM), Ramos cell killing by PBMCs (test 3), Donor 367 [6]: 0.0295 nM
- IC50 (nM), Ramos cell killing by M0 macrophages, Donor 022 [7]: 0.012 nM
- IC50 (nM), Ramos cell killing by M0 macrophages, Donor 159 [7]: 0.001 nM
- IC50 (nM), Ramos cell killing by M0 macrophages, Donor 161 [7]: 0.001 nM
- IC50 (nM), Ramos cell killing by M0 macrophages, Donor 431 [7]: 0.002 nM

B2: CD79b/5C7 (2+2 A) Fc-optimized (bispecific antibody, human IgG1, kappa)
heavy: EQQLVETGGGLIQPGGSLRLSCAASGFTINIDYWISWVRQAPGKGLEWIGIIDPGDGTTYFAIWVSGRFTISFDNSKNTVYLQMNSLRAEDTAVYFCVREFSASAYQYDLWGPGTLVTVSSASTKGPSVFPLAPSSKSTSGGTAALGCLVKDYFPEPVTVSWNSGALTSGVHTFPAVLQSSGLYSLSSVVTVPSSSLGTQTYICNVNHKPSNTKVDKKVEPKSCDKTHTCPPCPAPELLAGPSVFLFPPKPKDTLMISRTPEVTCVVVDVSHEDPEVKFNWYVDGVEVHNAKTKPREEQYNSTYRVVSVLTVLHQDWLNGKEYKCKVSNKALPLPEEKTISKAKGQPREPQVYTLPPSRDELTKNQVSLTCLVKGFYPSDIAVEWESNGQPENNYKTTPPVLDSDGSFFLYSKLTVDKSRWQQGNVFSCSVMHEALHNHYTQKSLSLSPGK
light: ELVMTQSPATLSVSPGERATLSCRASEDIENYLAWYQQKPGQPPRLLIYRASTLSSGVPARFSGSGSGTEFTLTISSLQSEDFAVYYCQQGYRNSNVDNPFGGGTKVEIKRTVAAPSVFIFPPSDEQLKSGTASVVCLLNNFYPREAKVQWKVDNALQSGNSQESVTEQDSKDSTYSLSSTLTLSKADYEKHKVYACEVTHQGLSSPVTKSFNRGECGGGGSGGGGSGGGGSDIQMTQSPSSLSASVGDRVTITCQASESVDRNNRLAWFQQKPGKPPKLLIYTTSTLASGVPSRFSGSGSGTDFTLTISSLQPEDVATYYCAGYRGAHTDGDAFGCGTKVEIKGGGGSGGGGSGGGGSGGGGSEQQLVESGGGLVKPGGSLRLSCAASGFSFSRSSYMCWVRQAPGKCLEWIGCLSVGDGHTYYASWAKGRFTISKDSAKNSVYLQMNSLRAEDTAVYFCARAPSYSGDGGHGYDLWGPGTLVTVSS
- IC50 (nM), Ramos cell killing by M2 macrophages, Donor 100 [1]: 0.001 nM
- IC50 (nM), Ramos cell killing by M2 macrophages, Donor 233 [1]: 0.003 nM
- IC50 (nM), killing of endogenous B cells by PBMCs, Donor 234 [3]: 0.0154 nM
- EC50 (read off the curve) [4]: ~900 pM
- IC50 (nM), Ramos cell killing by PBMCs (test 2), Donor 234 [5]: 0.0675 nM
- IC50 (nM), Ramos cell killing by M0 macrophages, Donor 100 [7]: 0.002 nM
- IC50 (nM), Ramos cell killing by M0 macrophages, Donor 159 [7]: 0.001 nM
- IC50 (nM), Ramos cell killing by M0 macrophages, Donor 161 [7]: 0.0013 nM
- IC50 (nM), Ramos cell killing by M0 macrophages, Donor 233 [7]: 0.002 nM

B3: 14A2, chimeric rabbit/human IgG1 anti-CLEC5A antibody (Fc-silenced) (antibody, V domains shown)
VH: QSLEESGGGLVKPEGSLTLTCKASGFTLSSYYYMCWVRQAPGKGLEWIACIYAGSSGTTVYASWAKGRFTISKTSSTTVTLQMTSLTAADTATYLCARKLGDVGYGHTTYFNLWGPGTLVTVSS
VL: ALVMTQTPSSVSAAVGGTVTIKCQASQNIYSTLAWYQQKPGQPPKLLMFDASDLASGVPSRFKGSGSGTEYTLTISDLEPADAATYFCQTYYDSGSDDLNAFGGGTEVVVK
notes: also called ch14A2
- EC50 [8]: 184 pM
- EC50 [9]: 3990 pM

B4: Necitumumab (antibody, V domains shown)
VH: QVQLQESGPGLVKPSQTLSLTCTVSGGSISSGDYYWSWIRQPPGKGLEWIGYIYYSGSTDYNPSLKSRVTMSVDTSKNQFSLKVNSVTAADTAVYYCARVSIFGVGTFDYWGQGTLVTVSS
VL: EIVMTQSPATLSLSPGERATLSCRASQSVSSYLAWYQQKPGQAPRLLIYDASNRATGIPARFSGSGSGTDFTLTISSLEPEDFAVYYCHQYGSTPLTFGGGTKAEIK
- EC50 [10]: 0.022 µg/mL

Now from value to binder, other results behind:

- EC50 [12]: 611 pM
B5: HER2/3A7 (1+1 A) Fc-silenced (bispecific antibody, human IgG1, kappa, L234A L235A)
heavy 1: not shown
heavy 2: not shown
light 1: not shown
light 2: AVVMTQTPASVEAAVGGTVTINCQASQRINNYLSWFQQKPGQPPKLLIYGAATLASGVPSRFKGSGSGTEYTLTISDLEPADAATYYCQCTYGIPSSNYGFGGGTEVVVKSSASTKGPSVFPLAPSSKSTSGGTAALGCLVKDYFPEPVTVSWNSGALTSGVHTFPAVLQSSGLYSLSSVVTVPSSSLGTQTYICNVNHKPSNTKVDKKVEPKSC
notes: also called HER2/3A7 (1+1 A) Fc-LALAPG
- IC50 (nM), SK-BR-3 cell killing by M0 macrophages (E:T 5:1) (HER2 on SK-BR-3 cells [11]): 0.114 nM

- EC50 [8]: 120 pM
- EC50 [13]: 310 pM
- EC50 [9]: 9800 pM
B6: 6A5, chimeric rabbit/human IgG1 anti-CLEC5A antibody (Fc-silenced) (antibody, V domains shown)
VH: QQQLEESGGGLVKPGGTLTLTCTASGFSFSSSYYMCWVRQAPGKGLELIACIYSSSGRTWYATWVNGRFTISRSTSLNTVDLKMTSLTAADTATYFCARSYAGYGGYGYAYFNLWGPGTLVTVSS
VL: DIVMTQTPASVEAGVGGTVTIKCQASEDIYSSLAWYQQKAGQRPKLLIYDASTLASGVPSRFKGSGSGTEYTLTISGVQPDDAATYYCQNYYDSTGSGYGAAFGGGTEVVVK
notes: also called ch6A5

- EC50 [12]: 1490 pM
B7: HER2/5C7 (1+1 A) Fc-silenced (bispecific antibody, human IgG1, kappa, L234A L235A)
heavy 1: not shown
heavy 2: not shown
light 1: not shown
light 2: AIVMTQTPSSKSVPVGDTVTINCQASESVDRNNRLAWFQQKPGQPPKLLIYTTSTLASGVPSRFKGSGSGTHFTLTISDVVPDDAATYYCAGYRGAHTDGDAFGGGTEVVVKSSASTKGPSVFPLAPSSKSTSGGTAALGCLVKDYFPEPVTVSWNSGALTSGVHTFPAVLQSSGLYSLSSVVTVPSSSLGTQTYICNVNHKPSNTKVDKKVEPKSC
notes: also called HER2/5C7 (1+1 A) Fc-LALAPG
- IC50 (nM), SK-BR-3 cell killing by M0 macrophages (E:T 5:1) (HER2 on SK-BR-3 cells [11]): 0.148 nM
- IC50 (nM), SK-BR-3 cell killing by M0 macrophages in the presence of hIgG1 (HER2 on SK-BR-3 cells [14]): 0.00632 nM
- IC50 (nM), SK-BR-3 cell killing by M0 macrophages in the presence of media (HER2 on SK-BR-3 cells [14]): 0.0481 nM
- IC50 (nM), SK-BR-3 cell killing by M0 macrophages in the presence of plasma (HER2 on SK-BR-3 cells [14]): 0.433 nM
